Results as given in the supplement of paper PMC11246515.
± gives the standard deviation of the averaged measurements.

Assay: total protein half-life in vivo (active degradation + dilution); higher = more stable protein
[1] = E. coli NCM3722 delta-hslV, growth: N-lim chemostat, doubling time 6 h
[2] = E. coli NCM3722 delta-smpB, growth: N-lim chemostat, doubling time 6 h
[3] = wild type E. coli NCM3722, growth: C-lim chemostat, doubling time 6 h
[4] = wild type E. coli NCM3722, growth: C-lim chemostat, doubling time 12 h
[5] = wild type E. coli NCM3722, growth: N-lim chemostat, doubling time 6 h
[6] = wild type E. coli NCM3722, growth: P-lim chemostat, doubling time 12 h
[7] = E. coli NCM3722 delta-clpP delta-lon delta-hslV, growth: N-lim chemostat, doubling time 6 h
[8] = E. coli NCM3722 delta-clpP, growth: N-lim chemostat, doubling time 6 h
[9] = wild type E. coli NCM3722, growth: C-lim chemostat, doubling time 3 h
[10] = wild type E. coli NCM3722, growth: N-lim chemostat, doubling time 12 h
[11] = wild type E. coli NCM3722, growth: P-lim chemostat, doubling time 6 h
[12] = E. coli NCM3722 delta-lon, growth: N-lim chemostat, doubling time 6 h

Sequence | total protein half-life in vivo [1] [h] | total protein half-life in vivo [2] [h] | total protein half-life in vivo [3] [h] | total protein half-life in vivo [4] [h] | total protein half-life in vivo [5] [h] | total protein half-life in vivo [6] [h] | total protein half-life in vivo [7] [h] | total protein half-life in vivo [8] [h] | total protein half-life in vivo [9] [h] | total protein half-life in vivo [10] [h] | total protein half-life in vivo [11] [h] | total protein half-life in vivo [12] [h]
MSNVIASLEKVLLPFAVKIGKQPHVNAIKNGFIRLMPLTLAGAMFVLINNVFLSFGEGSFFYSLGIRLDASTIETLNGLKGIGGNVYNGTLGIMSLMAPFFIGMALAEERKVDALAAGLLSVAAFMTVTPYSVGEAYAVGANWLGGANIISGIIIGLVVAEMFTFIVRRNWVIKLPDSVPASVSRSFSALIPGFIILSVMGIIAWALNTWGTNFHQIIMDTISTPLASLGSVVGWAYVIFVPLLWFFGIHGALALTALDNGIMTPWALENIATYQQYGSVEAALAAGKTFHIWAKPMLDSFIFLGGSGATLGLILAIFIASRRADYRQVAKLALPSGIFQINEPILFGLPIIMNPVMFIPFVLVQPILAAITLAAYYMGIIPPVTNIAPWTMPTGLGAFFNTNGSVAALLVALFNLGIATLIYLPFVVVANKAQNAIDKEESEEDIANALKF | 7.11 | 6.04 ± 0.73 | 6.68 ± 0.31 | 9.58 ± 2.1 | 6.51 | 13.3 |  |  |  |  |  | 
MNLLKSLAAVSSMTMFSRVLGFARDAIVARIFGAGMATDAFFVAFKLPNLLRRIFAEGAFSQAFVPILAEYKSKQGEDATRVFVSYVSGLLTLALAVVTVAGMLAAPWVIMVTAPGFADTADKFALTSQLLKITFPYILLISLASLVGAILNTWNRFSIPAFAPTLLNISMIGFALFAAPYFNPPVLALAWAVTVGGVLQLVYQLPHLKKIGMLVLPRINFHDAGAMRVVKQMGPAILGVSVSQISLIINTIFASFLASGSVSWMYYADRLMEFPSGVLGVALGTILLPSLSKSFASGNHDEYNRLMDWGLRLCFLLALPSAVALGILSGPLTVSLFQYGKFTAFDALMTQRALIAYSVGLIGLIVVKVLAPGFYSRQDIKTPVKIAIVTLILTQLMNLAFIGPLKHAGLSLSIGLAACLNASLLYWQLRKQKIFTPQPGWMAFLLRLVVAVLVMSGVLLGMLHIMPEWSLGTMPWRLLRLMAVVLAGIAAYFAALAVLGFKVKEFARRTV [P0AF16] | 5.87 | 6.21 ± 0.26 |  | 9.84 |  | 10.6 ± 0.34 | 6.51 ± 0.41 | 5.82 ± 0.39 | 3.36 | 8.94 ± 1.4 | 5.63 ± 0.54 | 
MSIDRTSPLKPVSTVQPRETTDAPVTNSRAAKTTASTSTSVTLSDAQAKLMQPGSSDINLERVEALKLAIRNGELKMDTGKIADALINEAQQDLQSN [P0AEM4] |  |  | 0.442 | 0.862 ± 0.19 |  |  |  |  | 0.693 ± 0.42 |  |  | 
MASTFTSDTLPADHKAAIRQMKHALRAQLGDVQQIFNQLSDDIATRVAEINALKAQGDAVWPVLSYADIKAGHVTAEQREQIKRRGCAVIKGHFPREQALGWDQSMLDYLDRNRFDEVYKGPGDNFFGTLSASRPEIYPIYWSQAQMQARQSEEMANAQSFLNRLWTFESDGKQWFNPDVSVIYPDRIRRRPPGTTSKGLGAHTDSGALERWLLPAYQRVFANVFNGNLAQYDPWHAAHRTEVEEYTVDNTTKCSVFRTFQGWTALSDMLPGQGLLHVVPIPEAMAYVLLRPLLDDVPEDELCGVAPGRVLPVSEQWHPLLIEALTSIPKLEAGDSVWWHCDVIHSVAPVENQQGWGNVMYIPAAPMCEKNLAYAHKVKAALEKGASPGDFPREDYETNWEGRFTLADLNIHGKRALGMDV | 2.4687 ± 0.002 | 2.62 ± 0.082 | 4.34 ± 1 | 3.99 ± 0.74 | 2.526 ± 0.014 | 7.6 ± 0.48 | 3.33 ± 0.48 | 2.54 ± 0.23 | 2.7 ± 0.11 | 3.68 ± 0.21 | 4.563 ± 0.02 | 2.95 ± 0.21
MEKYLHLLSRGDKIGLTLIRLSIAIVFMWIGLLKFVPYEADSITPFVANSPLMSFFYEHPEDYKQYLTHEGEYKPEARAWQTANNTYGFSNGLGVVEVIIALLVLANPVNRWLGLLGGLMAFTTPLVTLSFLITTPEAWVPALGDAHHGFPYLSGAGRLVLKDTLMLAGAVMIMADSAREILKQRSNESSSTLKTEY |  | 5.11 |  | 12.5 |  |  |  |  |  | 6.8 |  | 
MKEKTIIIVGGGQAAAMAAASLRQQGFTGELHLFSDERHLPYERPPLSKSMLLEDSPQLQQVLPANWWQENNVHLHSGVTIKTLGRDTRELVLTNGESWHWDQLFIATGAAARPLPLLDALGERCFTLRHAGDAARLREVLQPERSVVIIGAGTIGLELAASATQRRCKVTVIELAATVMGRNAPPPVQRYLLQRHQQAGVRILLNNAIEHVVDGEKVELTLQSGETLQADVVIYGIGISANEQLAREANLDTANGIVIDEACRTCDPAIFAGGDVAITRLDNGALHRCESWENANNQAQIAAAAMLGLPLPLLPPPWFWSDQYSDNLQFIGDMRGDDWLCRGNPETQKAIWFNLQNGVLIGAVTLNQGREIRPIRKWIQSGKTFDAKLLIDENIALKSL |  |  | 2.51 ± 0.54 | 2.78 ± 0.14 |  | 2.31 ± 0.41 | 5.74 ± 1.6 | 1.04 | 3.07 | 1.3 | 1.03 | 
MKLNIRAQTAQNQHNNSPIVLVHGLFGSLDNLGVLARDLVNDHNIIQVDMRNHGLSPRDPVMNYPAMAQDLVDTLDAQQIDKATFIGHSMGGKAVMALTALASDRIDKLVAIDIAPVDYHVRRHDEIFAAINAVSESDAQTRQQAAAIMRQHLNEEGVIQFLLKSFVDGEWRFNVPVLWDQYPHIVGWEKIPAWDHPALFIPGGNSPYVSEQYRDDLLAQFPQARAHVIAGAGHWVHAEKPDAVLRAIRRYLND | 5.14 ± 0.17 | 5.07 ± 0.61 | 5.74 ± 0.4 | 9.16 ± 2.6 | 5.02 ± 0.39 | 12.4 ± 0.16 | 5.19 ± 0.27 | 5.13 ± 0.26 | 3.04 ± 0.12 | 10 ± 1.1 | 6.53 ± 0.95 | 5.82 ± 1.4
MKPGCTLFFLLCSALTVTTEAHAQTPDTATTAPYLLAGAPTFDLSISQFREDFNSQNPSLPLNEFRAIDSSPDKANLTRAASKINENLYASTALERGTLKIKSIQMTWLPIQGPEQKAAKAKAQEYMAAVIRTLTPLMTKTQSQKKLQSLLTAGKNKRYYTETEGALRYVVADNGEKGLTFAVEPIKLALSESLEGLNK | 5.05 ± 0.18 | 5.12 ± 0.43 | 5.26 ± 1.2 | 8.36 ± 0.16 | 4.14 ± 0.39 | 8.75 ± 1.1 | 6.2 ± 0.26 | 5.91 ± 0.5 | 2.86 ± 0.12 | 8.35 ± 1.6 | 3.75 ± 0.27 | 5.3822 ± 0.0028
MKLDEIARLAGVSRTTASYVINGKAKQYRVSDKTVEKVMAVVREHNYHPNAVAAGLRAGRTRSIGLVIPDLENTSYTRIANYLERQARQRGYQLLIACSEDQPDNEMRCIEHLLQRQVDAIIVSTSLPPEHPFYQRWANDPFPIVALDRALDREHFTSVVGADQDDAEMLAEELRKFPAETVLYLGALPELSVSFLREQGFRTAWKDDPREVHFLYANSYEREAAAQLFEKWLETHPMPQALFTTSFALLQGVMDVTLRRDGKLPSDLAIATFGDNELLDFLQCPVLAVAQRHRDVAERVLEIVLASLDEPRKPKPGLTRIKRNLYRRGVLSRS [P0ACP1] | 5.38 ± 0.37 | 5.16 ± 0.56 | 5.63 ± 0.057 | 9.99 ± 0.83 | 5.65 ± 0.2 | 10.65 ± 0.013 | 6.0472 ± 0.0054 | 5.37 ± 0.29 | 3.17 ± 0.32 | 10.7 ± 0.77 | 5.6 ± 0.084 | 5.87 ± 0.21
MSHLKDPTTQYYTGEYPKQKQPTPGIQAKMTPVPDCGEKTYVGSGRLKDRKALVTGGDSGIGRAAAIAYAREGADVAISYLPVEEEDAQDVKKIIEECGRKAVLLPGDLSDEKFARSLVHEAHKALGGLDIMALVAGKQVAIPDIADLTSEQFQKTFAINVFALFWLTQEAIPLLPKGASIITTSSIQAYQPSPHLLDYAATKAAILNYSRGLAKQVAEKGIRVNIVAPGPIWTALQISGGQTQDKIPQFGQQTPMKRAGQPAELAPVYVYLASQESSYVTAEVHGVCGGEHLG [P0AG84] | 5.82 ± 0.34 | 5.06 ± 0.66 | 6.3 ± 0.59 | 11.4 ± 2.8 | 5.32 ± 0.27 | 10.73 ± 0.025 | 5.31 ± 0.2 | 5.27 ± 0.099 | 3.13 ± 0.54 | 9.18 ± 0.35 | 5.5 ± 0.43 | 5.57 ± 0.34
MMYHIPGVLSPQDVARFREQLEQAEWVDGRVTTGAQGAQVKNNQQVDTRSTLYAALQNEVLNAVNQHALFFAAALPRTLSTPLFNRYQNNETYGFHVDGAVRSHPQNGWMRTDLSATLFLSDPQSYDGGELVVNDTFGQHRVKLPAGDLVLYPSSSLHCVTPVTRGVRVASFMWIQSMIRDDKKRAMLFELDNNIQSLKSRYGESEEILSLLNLYHNLLREWSEI | 2.86 | 2.31 ± 0.3 | 4.856 ± 0.037 | 6.39 |  | 11.4 ± 1.4 | 4.14 ± 0.34 | 2.79 | 3 ± 0.17 | 4.16 | 5.85 ± 0.63 | 3.12 ± 0.055
MMNPLIIKLGGVLLDSEEALERLFSALVNYRESHQRPLVIVHGGGCVVDELMKGLNLPVKKKNGLRVTPADQIDIITGALAGTANKTLLAWAKKHQIAAVGLFLGDGDSVKVTQLDEELGHVGLAQPGSPKLINSLLENGYLPVVSSIGVTDEGQLMNVNADQAATALAATLGADLILLSDVSGILDGKGQRIAEMTAAKAEQLIEQGIITDGMIVKVNAALDAARTLGRPVDIASWRHAEQLPALFNGMPMGTRILA [P0A6C8] | 3.36 ± 0.25 | 3.02 ± 0.15 | 5.19 ± 0.41 | 10.3 ± 3.4 | 3.404 ± 0.033 | 7.92 ± 0.16 | 4.97 ± 0.82 | 3.77 ± 0.19 | 2.84 ± 0.045 | 4.813 ± 0.046 | 4.58 ± 0.39 | 4.45 ± 0.17
MKNFEVLQPLQNSLSGLPLWVSERILQQINQLTHYEPVIGIMGKTGAGKSSLCNALFAGEVSPVSDVAACTRDPLRFRLQIGEHFMTIVDLPGVGESGVRDTEYAALYREQLPRLDLILWLIKADDRALATDEHFYRQVIGEAYRHKMLFVISQSDKAEPTSGGNILSTEQKQNISRKICLLHELFQPVHPVCAVSVRLQWGLRVMAERMIKCLPREASSPVVALLQHPFRTTVAREQARDDFGETVGAILDTVSTFPLIPAPVRTIIQAVRSSVVSVARAVWDFFF | 3.97 |  |  | 10.6 |  |  |  |  |  |  |  | 
MDKQSLHETAKRLALELPFVELCWPFGPEFDVFKIGGKIFMLSSELRGVPFINLKSDPQKSLLNQQIYPSIKPGYHMNKKHWISVYPGEEISEALLRDLINDSWNLVVDGLAKRDQKRVRPG [P0AAT2] | 5.97 ± 0.5 | 5.28 ± 0.71 | 5.17 ± 0.11 | 11.2 ± 0.26 | 4.78 ± 0.46 | 10.6 ± 0.46 | 5.54 ± 0.35 | 6.23 | 3.35 ± 0.7 | 10.1 ± 2.1 | 4.72 ± 1.1 | 6.9 ± 0.29
MITIPITLRMLIAKYLCLLKPFWLRKNNKTSVLLIIIILAMILGVVKIQVWLNDWNNDFFNALSQKETDKLWQLVLWFPALLGIFVLISVNKTWLIKLLTIRWREWLTDYYLNRWFADKNYYFTQIYGEHKNTDNPDQRIAEDILLLISKTLSLSFGFIQSLSMLITFTVILWESAGTLSFTVGGTEWNIQGYMVYTVVLIVIGGTLFTHKVGKRIRPLNVEKQRSEATFRTNLVQHNKQAELIALSNAESLQRQELSDNFHTIKENWHRLMNRQRWLDYWQNIYSRSLSVLPYFLLLPQFISGQINLGGLMKSRQAFMLVSNNLSWFIYKYDELAELAAVIDRLYEFHQLTEQRPTNKPKNCQHAVQVADASIRTPDNKIILENLNFHVSPGKWLLLKGYSGAGKTTLLKTLSHCWPWFKGDISSPADSWYVSQTPLIKTGLLKEIICKALPLPVDDKSLSEVLHQVGLGKLAARIHDHDRWGDILSSGEKQRIALARLILRRPKWIFLDETTSHLEEQEAIRLLRLVREKLPTSGVIMVTHQPGVWNLADDICDISAVL |  |  | 5.29 ± 0.53 | 11.5 ± 1.1 |  |  |  |  | 3.2 ± 0.6 |  |  | 
